Assay in all cases: cell_activity; human T cells, 1 ug mRNA, day 3
Holding throughout (settings): tags: N-terminal SV40 NLS

One series has as its target T1, B2M 13-14x.93 QQR66 (Artificial Sequence).
T1 chain: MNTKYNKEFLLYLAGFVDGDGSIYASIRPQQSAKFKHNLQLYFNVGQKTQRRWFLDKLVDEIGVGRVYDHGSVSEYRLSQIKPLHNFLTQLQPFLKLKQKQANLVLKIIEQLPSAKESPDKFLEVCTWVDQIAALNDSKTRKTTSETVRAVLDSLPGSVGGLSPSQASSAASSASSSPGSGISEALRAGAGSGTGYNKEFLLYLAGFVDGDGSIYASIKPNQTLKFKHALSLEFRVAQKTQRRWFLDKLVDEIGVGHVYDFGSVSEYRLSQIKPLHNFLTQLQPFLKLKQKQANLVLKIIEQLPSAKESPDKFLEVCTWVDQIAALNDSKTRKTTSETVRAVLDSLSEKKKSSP
As for the experimental part:
(§1) To test these variants of B2M 13-14x.93, donor human T cells were stimulated with anti-CD3 and anti-CD28 antibodies for 3 days, then electroporated with mRNA encoding a given B2M 13-14 meganuclease (1 μg) using the Amaxa 4D-Nucleofector (Lonza) according to the manufacturer's instructions. At 3 days post-electroporation, cells were stained with an antibody recognizing β-2 microglobulin (BD Biosciences) and analyzed by flow cytometry.

A further series addresses T2, B2M 13-14x.93 EEK66 (Artificial Sequence).
T2 chain: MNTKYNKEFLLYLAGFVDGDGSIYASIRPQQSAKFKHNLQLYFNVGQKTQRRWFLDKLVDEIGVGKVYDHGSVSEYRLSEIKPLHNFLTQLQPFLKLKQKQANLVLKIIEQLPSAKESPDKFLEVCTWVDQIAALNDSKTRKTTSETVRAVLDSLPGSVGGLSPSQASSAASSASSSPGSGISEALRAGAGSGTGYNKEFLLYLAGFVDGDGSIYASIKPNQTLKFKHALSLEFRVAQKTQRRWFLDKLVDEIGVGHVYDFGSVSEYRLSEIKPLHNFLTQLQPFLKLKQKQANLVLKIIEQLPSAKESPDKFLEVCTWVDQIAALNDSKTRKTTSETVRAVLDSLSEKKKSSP
The method, then:
as §1

For a further series, the target named is T3, B2M 13-14x.93 EER66 (Artificial Sequence).
T3 chain: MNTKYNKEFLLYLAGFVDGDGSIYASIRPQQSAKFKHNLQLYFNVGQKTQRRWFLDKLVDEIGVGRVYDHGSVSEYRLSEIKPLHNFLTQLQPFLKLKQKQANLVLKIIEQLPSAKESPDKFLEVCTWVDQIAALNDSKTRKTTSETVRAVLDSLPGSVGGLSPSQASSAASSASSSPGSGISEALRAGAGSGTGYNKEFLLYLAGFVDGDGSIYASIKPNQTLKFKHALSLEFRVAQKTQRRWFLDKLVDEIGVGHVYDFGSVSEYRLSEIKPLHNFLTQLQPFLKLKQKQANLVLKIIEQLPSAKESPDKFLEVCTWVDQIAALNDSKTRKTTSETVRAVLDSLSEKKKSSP
As for the experimental part:
as §1

The target of another series is T4, B2M 13-14x.93 QQK66 (Artificial Sequence).
T4 chain: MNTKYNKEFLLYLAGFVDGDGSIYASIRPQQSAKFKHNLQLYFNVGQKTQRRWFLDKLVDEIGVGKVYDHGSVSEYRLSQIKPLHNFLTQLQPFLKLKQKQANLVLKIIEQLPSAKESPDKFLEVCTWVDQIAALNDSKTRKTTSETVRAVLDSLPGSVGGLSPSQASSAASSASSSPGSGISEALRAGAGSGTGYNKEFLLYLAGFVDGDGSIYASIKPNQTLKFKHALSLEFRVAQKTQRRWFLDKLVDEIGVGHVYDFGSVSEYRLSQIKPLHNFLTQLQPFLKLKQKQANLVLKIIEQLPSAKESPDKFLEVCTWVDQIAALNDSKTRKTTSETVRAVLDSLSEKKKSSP
The method, then:
as §1

For another series, the target named is T5, B2M 13-14x.93 EEY66 (Artificial Sequence).
T5 chain: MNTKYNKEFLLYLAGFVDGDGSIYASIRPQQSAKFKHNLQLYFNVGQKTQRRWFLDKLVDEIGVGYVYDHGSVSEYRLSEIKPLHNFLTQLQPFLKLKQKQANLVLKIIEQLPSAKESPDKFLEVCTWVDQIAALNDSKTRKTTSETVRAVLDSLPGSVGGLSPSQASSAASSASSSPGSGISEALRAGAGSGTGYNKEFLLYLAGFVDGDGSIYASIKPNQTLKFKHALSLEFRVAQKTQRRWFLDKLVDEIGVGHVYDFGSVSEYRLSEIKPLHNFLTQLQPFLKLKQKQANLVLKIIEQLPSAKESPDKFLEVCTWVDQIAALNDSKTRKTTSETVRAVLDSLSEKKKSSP
As for the experimental part:
as §1

The target in another series is T6, B2M 13-14x.479 (Artificial Sequence).
T6 chain: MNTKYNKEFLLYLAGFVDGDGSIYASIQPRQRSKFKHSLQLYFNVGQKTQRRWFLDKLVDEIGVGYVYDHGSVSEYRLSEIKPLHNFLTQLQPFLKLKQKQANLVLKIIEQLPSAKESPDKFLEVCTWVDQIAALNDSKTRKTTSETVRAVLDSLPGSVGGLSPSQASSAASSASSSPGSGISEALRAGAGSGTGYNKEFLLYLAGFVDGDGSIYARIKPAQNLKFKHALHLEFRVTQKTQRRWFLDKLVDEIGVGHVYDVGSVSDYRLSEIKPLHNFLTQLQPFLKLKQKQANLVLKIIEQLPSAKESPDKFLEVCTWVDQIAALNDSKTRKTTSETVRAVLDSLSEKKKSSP
As for the experimental part:
Donor human T cells were stimulated with anti-CD3 and anti-CD28 antibodies for 3 days, then electroporated with mRNA encoding a given B2M 13-14 meganuclease (1 μg) using the Amaxa 4D-Nucleofector (Lonza) according to the manufacturer's instructions. To look for the loss of B2M surface expression, cells were stained with an antibody recognizing β-2 microglobulin (BD Biosciences) as well as an antibody recognizing CD3 (BioLegend), a marker of T cells.

B1: B2M 13-14 recognition sequence (dsDNA)
DNA 1: CTATCTCTTGTACTACACTGAA
DNA 2: TTCAGTGTAGTACAAGAGATAG
Turning to B1, the activity with B2M 13-14x.93 QQR66 came out at 5.05 % B2M-negative; in the series with B2M 13-14x.93 EEK66, 3.84 % B2M-negative; with B2M 13-14x.93 EER66, 7.07 % B2M-negative; in the series with B2M 13-14x.93 QQK66, 2.64 % B2M-negative; in the series with B2M 13-14x.93 EEY66, 1.58 % B2M-negative; with B2M 13-14x.479 it was 67.2 % B2M-negative.
